The subject of this data set is MS2 coat protein. In words: apparent KD of MS2 coat protein; designed switch direction (-1 OFF switch, 1 ON switch): 1; higher = weaker reporter binding. Summed up:
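The reported apparent KD is a per-design median over clusters, from curve fits of normalised cluster fluorescence. Protein titrations used SNAP-549-labelled MS2 coat protein, doubled from 0.7 or 1.5 nM to 3 µM, in Tris-HCl pH 7.5 buffer with KCl, MgCl2, BSA, DTT, tRNA and Tween-20, with no input, 200 uM small-molecule ligand, or an oligonucleotide input. The RNA switches were transcribed on Illumina chips by stalled E. coli RNA polymerase.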

[1] abbreviates: input ligand: microRNA oligo, concentration not stated.
Where [2] appears, read: Eterna round: R95, input ligand: FMN 200 uM.
Where [3] appears, read: Eterna round: R95, input ligand: microRNA oligo, concentration not stated.
[4] abbreviates: Eterna round: R95, input ligand: none.

Experimental findings from the supplement of paper PMC9170038 are described below.

As to “AGCUAUUAAUCAGGAUAUGGUGACAUGAGGAUCACCCAUGUAUAGAUGAUUAAAUGUGGUCUAUACUAGAAGGGAUUACUAACA [SameState NG2 #53] (Eterna round: R96, puzzle: Same State NG 2)”, the “apparent KD of MS2 coat protein” value (input ligand: FMN 200 uM) was 2210 nM, the “apparent KD of MS2 coat protein” value under setting [1] came out at 478 nM and the “apparent KD of MS2 coat protein” value (input ligand: none) was determined as 626 nM.

Turning to “AGCUUUUAAUCAGGAUAUGGUCACAUGAGGAUCACCCAUGUAACGAUGAUAUAAUGUGGUCAAGACUAGAAGGGAUUGCUAACA [SameState NG2 #67] (Eterna round: R96, puzzle: Same State NG 2)”, the “apparent KD of MS2 coat protein” value reads like this: (input ligand: FMN 200 uM) 172 nM; under setting [1], 232 nM; (input ligand: none) 288 nM.

Regarding “AGGAUAACACAUGAGGAUCACCCAUGUAUUAUUAUUACAAGCUUUUUGCUCGUUUUUAAUAAUACAUGUGUUAUUUU [Default title] (puzzle: Sensor for hsa-mir-208a version 2)”, the “apparent KD of MS2 coat protein” value under setting [2] was found to be 88.2 nM, the “apparent KD of MS2 coat protein” value under setting [3] stood at 88.7 nM and the “apparent KD of MS2 coat protein” value under setting [4] was 133 nM.

On to “AGGCUCAGACGAGGAUAUGAUCAUGGCGCUUCGGCGCAUACAUGAGGAUCACCCAUGUAGGGUGAUCAGAAGGCGUCUGAGCCA [SSNG2/8-A1] (Eterna round: R96, puzzle: Same State NG 2)”, for which the “apparent KD of MS2 coat protein” value worked out at 42.1 nM (input ligand: FMN 200 uM), 225 nM under setting [1] and 314 nM (input ligand: none).

With “AGGUUCGUGCUAGGAUAUCUAGGAUAUGGACGAGGAUUACCCGAGCAGGAUUACCGCACCAGAGGAGAGAAGGAGCAACAAGAG [pwkr ssNG2 2F5 2FMN.13] (Eterna round: R96, puzzle: Same State NG 2)”, the “apparent KD of MS2 coat protein” value by setting is: (input ligand: FMN 200 uM) 0.959 nM; under setting [1], 5.01 nM; (input ligand: none) 420 nM.

As to “AGUAGUGUAACAUGAGGAUCACCCAUGUAAGAAGAUGUAACCUAGGAUAUGGAUGAUAUGUUAGACCAGAAGGAGGAUUGUUUA [JR_SSNG3_Sub039] (Eterna round: R96, puzzle: Same State NG 3)”, the “apparent KD of MS2 coat protein” value is, setting by setting: (input ligand: FMN 200 uM) 43.2 nM; under setting [1], 116 nM; (input ligand: none) 207 nM.

Turning to “AGUAGUUUAACAUGAGGAUCACCCAUGUAUCUAUCUGUAACCUAGGAUAUGGACGUUUUAUUUAACCAGAAGGAGGAUCGUUUA [JR_SSNG3_Sub045] (Eterna round: R96, puzzle: Same State NG 3)”, the “apparent KD of MS2 coat protein” value by setting is: (input ligand: FMN 200 uM) 17.1 nM; under setting [1], 16.9 nM; (input ligand: none) 25.3 nM.

Turning to “AGUCCAGCAAGAGCUGGACAAAAGCAUGUACAUGAGGAUCACCCAUGUUCAUGUACAAGCUUUUAGCUCGUCUUAAA [Mat - hsa-mir-208a - Mod of JL - 58] (puzzle: Sensor for hsa-mir-208a)”, the “apparent KD of MS2 coat protein” value by setting is: under setting [2], 505 nM; under setting [3], 14.2 nM; under setting [4], 570 nM.

Turning to “AGUCCAGCAUAAGCUGGACAAAAGCAUGUACAUGAGGAUCACCCAUGUCAUGUACAAGCUUUUUGCUCGUCUUAAUA [Mat - hsa-mir-208a - Mod of JL - D36] (puzzle: Sensor for hsa-mir-208a)”, the “apparent KD of MS2 coat protein” value is, setting by setting: under setting [2], 446 nM; under setting [3], 19.8 nM; under setting [4], 500 nM.

In the case of “AGUCCAGCCAAAGCUGGACAAAAGCAUGUACAUGAGGAUCACCCAUGUUCAUGUACAAGCUUUUUGCAAGUCAAAAG [Mat - hsa-mir-208a - Mod of JL - 77] (puzzle: Sensor for hsa-mir-208a)”, the “apparent KD of MS2 coat protein” value by setting is: under setting [2], 332 nM; under setting [3], 29.5 nM; under setting [4], 498 nM.

For the sequence “AGUCCAGCCUGAGCUGGACAAAAGCAUGUACAUGAGGAUCACCCAUGUCAUGUACAAGCUUUUUGCUCGUCUAAAUA [Mat - hsa-mir-208a - Mod of JL - D27] (puzzle: Sensor for hsa-mir-208a)”, the “apparent KD of MS2 coat protein” value under setting [2] was determined as 516 nM, the “apparent KD of MS2 coat protein” value under setting [3] amounted to 15.8 nM and the “apparent KD of MS2 coat protein” value under setting [4] amounted to 699 nM.

On to “AGUCCAGCCUGAGCUGGACAAAAGCAUGUACAUGAGGAUCACCCAUGUCAUGUACAAGCUUUUUGCUCGUCUUAAAA [JL zipper 46] (Eterna round: R96, puzzle: Sensor for hsa-mir-208a)”, for which the “apparent KD of MS2 coat protein” value (input ligand: FMN 200 uM) was 685 nM, the “apparent KD of MS2 coat protein” value under setting [1] amounted to 13 nM and the “apparent KD of MS2 coat protein” value (input ligand: none) came to 677 nM.

Take “AGUCCAGCCUGAGCUGGACAAAAGCAUGUACAUGAGGAUCACCCAUGUCAUGUACAAGCUUUUUGCUCGUUUUAAAA [Zipper 46 - 13] (Eterna round: R96, puzzle: Sensor for hsa-mir-208a)”: the “apparent KD of MS2 coat protein” value was 633 nM (input ligand: FMN 200 uM), 12.9 nM under setting [1] and 611 nM (input ligand: none).
